# Measurements taken from US20210340516A1, “COMPOSITIONS CONTAINING ARGINASE 1 FOR THE TREATMENT OF NEUROVASCULAR AND RETINAL VASCULAR DISORDERS” (Augusta University Research Institute, Inc., priority 2020, published 2021).
# Columns and labels:
# [1] = tested on: OIR retinas (TNFα, IL-6, MCP1, iNOS, A1, FGF2, CNTF, IL-10 mRNA); test: OIR mouse model: qPCR of retinal inflammation markers and growth factors; assay type: in vivo
# Description: PBS was used as vehicle control. Pups were anesthetized before treatment by intraperitoneal (i.p.) injection of ketamine/xylazine mixture. Intravitreal injections were performed using a 36-gauge NanoFil needle mounted to a 10-μL Hamilton syringe (World Precision Instruments). Two treatment strategies were employed. […] The P9 time point was selected based on the fact that vaso-obliteration occurs within the first 48 hours of hyperoxia treatment (Connor, et al., Nature Protocols, 4:1565-1573 (2009); Lange, et al., Graefe's archive for clinical and experimental ophthalmology, 247:1205-1211 (2009); Gu, et al., Investigative ophthalmology & visual science, 43:496-502 (2002)).
# However, variability was relatively high in the OIR retinas and this protective effect was statistically significant only for TNFα.
# retinal explants = test: Ex vivo retinal explants subjected to OGD/R, NeuN flat-mount staining; assay type: cell-based, mouse; conditions: 3 hours OGD/21 hours reoxygenation, treated at reoxygenation; untreated 55%, PEG only 48%
# Excerpt: Evaluation of retinal neurodegeneration: Retina flat-mounts and explants were immunolabeled for the neuronal marker, NeuN (Millipore), as previously described in Shosha, et al., Cell death & disease, 7:e2483-e (2016). Images were collected and analyzed in a blinded fashion using a semi-automated method. Four images per retina flat-mount were taken as Z-stacks in the mid-periphery of each retina petal using an inverted confocal microscope (LSM 780; Carl Zeiss). Three images were taken per explant. NeuN-positive cells were quantified using ImageJ software ‘Batch processing’ function. A prerecorded ImageJ macro code (FIG. 23A-23C) was used for batch processing. The macro was validated every time it was used to make sure it is compatible with the set of images being analyzed. Results from three to four images were averaged to represent neuron density for each retina. Results are presented as % of sham retina or control explant under normoxic conditions. […]
# The retinal IR model was mimicked by subjecting retinal explants to oxygen-glucose deprivation/reperfusion (OGD/R) ex vivo (FIG. 19A). An OGD time-response experiment established 3 hours of OGD/21 hours of reoxygenation to be optimal for studying retinal neurodegeneration ex vivo with about 60% neuronal survival as measured by NeuN flat-mount staining (FIG. 19B-19E, 19F).
# [2] = MCAO stroke model: PEG-A1 penetration into the brain (Western blot); assay type: in vivo, mouse; conditions: 60 minutes MCAO, 24 hours after stroke, perfused
# Description: Western blotting: Western blotting on retina or brain was conducted as described in Fouda, A Y, et al., Cell death & Disease, 9:1001 (2018). Membranes were probed with anti-PEG (RevMAb Biosciences, 1:1000) and anti-albumin (Bethyl Laboratories, 1:5000). Uncropped blots are included in FIG. 22.
# MCAO model: C57BL/6J mice (12-16 week-old male, 25-30 g) were subjected to middle cerebral artery occlusion (MCAO) using the intraluminal filament technique (Docol 602145) for 60-minutes followed by reperfusion as described in Eldahshan, et al., American Journal of Physiology Heart and Circulatory Physiology, 316:H1192-h201 (2019). […] A heating pad was used to maintain body temperature at 37° C. […] Sham surgery involved all the regular surgery steps except the filament insertion. Mice were deeply anesthetized at 24 hours and sacrificed by trans-cardial perfusion with PBS then brains were collected and sectioned for triphenyl tetrazolium chloride (TTC) staining or homogenized in RIPA lysis buffer for western blotting.
# PEG-A1 treatment in acute retinal and brain injury mouse models: A pharmaceutical grade of PEG-A1 was provided as a kind gift from Bio-Cancer Treatment International Limited (BCT, Hong Kong). […] Methoxy polyethylene glycol propionic acid (MW 5,000—Sigma, Catalog number 88908-1G-F) was used as vehicle control. […]
# [3] = Pharmacokinetic profile of PEG-A1 in mouse vitreous by arginase activity after intravitreal administration; assay type: in vivo; conditions: adult mice, intravitreal 6.8 ng in 1 μL
# Excerpt: Based on the results of the above studies showing detrimental effects of A1 hemizygous deletion on vascular repair in A1^+/− mice and the findings that increases in A1 expression accompany the beneficial effects of A2 deletion on the vascular injury, it was hypothesized that treatment with A1 could be useful in limiting OIR-induced retinal injury. To test this, a PEG-A1 was used. […] Adult mice were used in this experiment to get higher vitreous yield for ease of processing.
# [4] = OIR retinas, P13 or P17, not statistically significant
# [5] = OIR retinas, did not reach statistical significance
molecule,measurement,setting,value
"PEG-A1: recombinant human arginase (rhArg) covalently attached to methoxy polyethylene glycol (mPEG-SPA; MW 5,000) via succinamide propionic acid (SPA) linker (protein, UniProt P05089 1-322, looked up, mPEG-SPA 5 kDa conjugate, recombinant human arginase (rhArg) covalently attached to methoxy polyethylene glycol (mPEG-SPA; MW 5,000) via succinamide propionic acid (SPA) linker) Arginase-1: MSAKSRTIGIIGAPFSKGQPRGGVEEGPTVLRKAGLLEKLKEQECDVKDYGDLPFADIPNDSPFQIVKNPRSVGKASEQLAGKVAEVKKNGRISLVLGGDHSLAIGSISGHARVHPDLGVIWVDAHTDINTPLTTTSGNLHGQPVSFLLKELKGKIPDVPGFSWVTPCISAKDIVYIGLRDVDPGEHYILKTLGIKYFSMTEVDRLGIGKVMEETLSYLLGRKKRPIHLSFDVDGLDPSFTPATGTPVVGGLTYREGLYITEEIYKTGLLSGLDIMEVNPSLGKTPEEVTRTVNTAVAITLACFGLAREGNHKPIDYLNPPK",iNOS mRNA levels,[1]; OIR WT retinas,significantly reduced
same,A1 mRNA,[1]; OIR retinas,mRNA upregulation
same,FGF2 mRNA,[1]; OIR retinas,mRNA upregulation
same,IL-6 expression (qPCR),[1]; [4],reduced the expression
same,MCP1 expression (qPCR),[1]; [4],reduced the expression
same,TNFα expression (qPCR),"[1]; OIR retinas, P13 or P17, statistically significant",reduced the expression
same,CNTF mRNA,[1]; [5],mRNA upregulation
same,IL-10 mRNA,[1]; [5],mRNA upregulation
same,neuronal survival of retina explants (NeuN),retinal explants,73%
same,"anti-PEG immunoreactivity in stroked brains (Western blot, also anti-A1)",[2],strong band
same,vitreous arginase activity,[3]; day 3 post injection,three-fold
same,vitreous arginase activity,[3]; day 6,returned to baseline
same,vitreous arginase activity as compared to vehicle treatment,[3]; immediately after administration,about six-fold increase
